Experimental data reported in US20240189387A1, “DOSING REGIMENS FOR HEMATOPOIETIC STEM CELL MOBILIZATION FOR STEM CELL TRANSPLANTS IN MULTIPLE MYELOMA PATIENTS” (Ensoma, Inc., priority 2021, published 2024).
Read-outs that look alike come from different tables or passages of the source.

Legend:
[1] = system: MMP-9; assay: Phase 1 trial: plasma MMP-9 and TIMP-1 (sandwich immunoassay); format: in vivo, human; settings: MGTA-145 monotherapy, all six doses
Description: (§1) Additionally, blood samples were analyzed by multicolor flow cytometry to quantify changes in expression of neutrophil activation markers such as L-selectin, CD11b, CD18, and CD66. Additionally, matrix metalloproteinase 9 (MMP-9), a neutrophil protease believed to mediate mobilization in response to MGTA-145, as well as its cognate inhibitor, TIMP-1, were quantified in plasma samples collected at the same time points by sandwich immunoassay.

[2] = system: neutrophil activation markers (L-selectin, CD11b, CD18, CD66); assay: Phase 1 trial: neutrophil activation markers (flow cytometry); format: in vivo, human; settings: MGTA-145 monotherapy
Description: as §1

[3] = molecular target: T1, CXCR2 (Homo sapiens, UniProt P25025); assay: Phase 1 trial: CXCR2 expression on peripheral blood neutrophils; format: in vivo
T1 construct: endogenous in cells; host or cells: peripheral blood neutrophils of dosed subjects (in vivo)
T1 sequence (P25025 1-360): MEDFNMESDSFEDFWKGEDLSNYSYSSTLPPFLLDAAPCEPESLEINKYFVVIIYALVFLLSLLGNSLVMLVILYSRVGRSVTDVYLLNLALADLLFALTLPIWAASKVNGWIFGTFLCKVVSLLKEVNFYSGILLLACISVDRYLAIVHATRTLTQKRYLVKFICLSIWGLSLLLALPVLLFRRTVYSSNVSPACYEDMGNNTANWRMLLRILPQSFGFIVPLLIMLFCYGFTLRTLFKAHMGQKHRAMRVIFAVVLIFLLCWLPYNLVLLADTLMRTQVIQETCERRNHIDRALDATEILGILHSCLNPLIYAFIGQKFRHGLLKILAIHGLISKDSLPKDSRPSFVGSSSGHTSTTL

[4] = system: LT-HSC cells (Lin−c-Kit+Sca1+CD150+CD48−); assay: Mobilization in mice and primary/secondary transplantation at limit dilution; format: in vivo; settings: compared to the other cohorts
Excerpt: Mice (CD45.1) were mobilized according to the scheme shown in FIG. 24 and mobilized cells transplanted into CD45.2 mice at limit dilution.

[5] = format: in vivo
[6] = system: neutrophil and platelet engraftment; format: in vivo
[7] = system: hematopoietic stem and progenitor cells; settings: U.S. Pat. No. 6,080,398; cited from earlier work
[8] = Phase 1 trial: treatment emergent adverse events; settings: Part A, n = 24
Excerpt: FIG. 1A depicts the treatments provided to patient cohorts enrolled in Part A and Part B of a Phase 1 clinical trial as well as measurable endpoints.
Patients were monitored for emergent adverse events.

[9] = system: CD34+ cells; assay: Phase 1 trial Part D: apheresis collection yield; settings: 2 h stagger after plerixafor
Description: (§2) The dose of MGTA-145 was one of 0.0075 mg/kg, 0.015 mg/kg, 0.03 mg/kg, 0.075 mg/kg, 0.15 mg/kg, or 0.3 mg/kg. […] The dose of MGTA-145 was one of 0.015 mg/kg, 0.03 mg/kg, 0.075 mg/kg, or 0.15 mg/kg. […] The dose of MGTA-145 was one of 0.03 mg/kg or 0.075 mg/kg.
The table documents the body weight of each subject, the total CD34+ cells that were obtained through the apheresis procedure, the normalized CD34+ cells/kg of body weight, and the percentage of CD34+ cells that were CD90+CD45RA−.
The table documents the total CD34+ cells that were obtained through the apheresis procedure, the normalized CD34+ cells/kg of body weight, and the percentage of CD34+ cells that were CD90+CD45RA−.

[10] = system: neutrophils; assay: Phase 1 trial: mobilization of neutrophils (automated hematology analyzer); settings: MGTA-145 monotherapy
Description: as §2
(§3) Mobilization of white blood cells (WBCs), neutrophils, lymphocytes, basophils, and eosinophils was quantified by automated hematology analyzer.

[11] = system: white blood cells (WBCs); assay: Phase 1 trial: mobilization of white blood cells (automated hematology analyzer); settings: MGTA-145 monotherapy
Description: as §2, §3

[12] = system: CD34+ cells; assay: Phase 1 trial: mobilization of CD34+ cells into peripheral blood (multicolor flow cytometry); settings: for Percent ≥20/μL / Peak CD34+ (#/μL) Median: Part A
[13] = system: CD34+CD90+CD45RA− cells; assay: Phase 1 trial: mobilization of CD34+CD90+CD45RA− cells into peripheral blood (flow cytometry)
[14] = system: neutrophil activation markers (L-selectin, CD11b, CD18, CD66); settings: 5 days of G-CSF treatment, Falanga et al., Blood 1999; cited from earlier work
[15] = G-CSF; bone pain, headache, myalgia, and/or fatigue (up to 1+ week); Pulsiper et al. 2009; cited from earlier work
[16] = system: graft cell subsets (T cells, B cells, NK cells); settings: cited from earlier work
[17] = system: CD90+CD45RA− among CD34+ cells; settings: Goncalves ASTCT 2021; cited from earlier work
[18] = higher doses (0.075, 0.15, 0.3 mg/kg), 2 hours post administration
[19] = lower doses (0.0075, 0.015, 0.03 mg/kg)
[20] = MGTA-145 monotherapy 0.03 mg/kg
[21] = MGTA-145 monotherapy, the other doses
[22] = Chen et al., 2019, 2 LP plerixafor, 1 LP G-CSF
[23] = Devine et al, 2008, yield of 1 LP
[24] = G-CSF, Chaidos et al, Blood 2012

MGTA-145: Gro-β T (SEQ ID NO: 2), truncated Gro-β with deletion of the first four N-terminal amino acids; CXCR2 agonist
molar ratio of MMP-9:TIMP-1 [1]: rapid increase 30 minutes post-administration | plasma levels of MMP-9 [1]: increased sharply within 30 minutes post-administration | fold change relative to baseline of CD66 ([2]; all doses except the highest (0.3 mg/kg)): < 2 fold | fold change relative to baseline of CD11b and CD18 ([2]; all six doses): < 2 fold | fold change relative to baseline of L-selectin ([2]; all six doses): < 2 fold | CXCR2 expression recovery prior to the second dose ([3]; MGTA-145 0.07 mg/kg, staggered dosing with plerixafor, two consecutive days): ~80 % of baseline | CXCR2 on peripheral neutrophils ([3]; MGTA-145 monotherapy, followed by recovery over 24 hours): rapid downregulation | engraftment rates, secondary transplantation [4]: vastly improved engraftment rates | median severity of pain on a scale of 1-10 [5]: 8 (3-10) | patients experiencing hyperhidrosis [5]: 4% | patients experiencing nausea [5]: 8% | patients experiencing thrombocytopenia [5]: 8% | patients experiencing vomiting (grade 2) [5]: 4% | patients with TEAEs at least possibly related to MGTA-145 [5]: 60% | patients with acute pain [5]: 9 patients | patients experiencing pain ([5]; 11 patients): 50% | patients with acute onset transient bone pain with MGTA-145 ([5]; 25 patients): 38% | patients with pain (all grade 1) ([5]; 25 patients): 44% | patients with at least 1 treatment emergent AE with MGTA-145 ([5]; 25 patients, grade 1 n=14, grade 2 n=1): 60% | duration of acute onset transient bone pain ([5]; 25 patients, range 3-28): 7 min | patients with at least 1 adverse event ([5]; initial cohort): 90% | patients with grade 2 AEs (anemia, hypokalemia) ([5]; initial cohort): 20% | patients with grade 3 AEs (worsening of baseline grade 3 anemia; hypocalcemia) ([5]; initial cohort): 20% | tolerability ([5]; multiple myeloma patients): well tolerated | onset of acute and transient bone pain after start of MGTA-145 infusion (median) ([5]; range 3-10): about 5 minutes | median duration of acute and transient bone pain ([5]; range 3-28): 7 min | engraftment at day 100 follow-up ([6]; 14 patients): durable engraftment | engraftment after transplant ([6]; 18 transplanted patients): All patients have engrafted | median time to platelet engraftment (platelets ≥20,000×10^6/L, no transfusion in 7 days) ([6]; 18 transplanted patients): 17.5 days | patients needing RBC transfusion ([6]; 18 transplanted patients): 17% | median time to neutrophil engraftment ([6]; 18 transplanted patients, range 11-15): 12 days | potency to induce hematopoietic stem and progenitor cell mobilization relative to Gro-β [7]: superior to that of Gro-β by multiple orders of magnitude | Subjects with any drug related TEAE ([8]; MGTA-145 0.0075-0.3 mg/kg): 19 (79.2) n (%) | Back pain/Musculoskeletal pain [8]: 19 (79.2) n (%) | CD34+/kg Mean ([9]; MGTA-145 0.03 mg/kg): 4.1 x10^6 | CD34+/kg Median ([9]; MGTA-145 0.03 mg/kg): 4.3 x10^6 | CD90+/kg Mean (CD34+CD90+CD45RA− cells) ([9]; MGTA-145 0.03 mg/kg): 1.3 x10^6 | CD90+/kg Median (CD34+CD90+CD45RA− cells) ([9]; MGTA-145 0.03 mg/kg): 1.5 x10^6 | Total CD34+ Yield Median (range) ([9]; MGTA-145 0.03 mg/kg): 321 (239-500) x10^6 | CD90+ (% of CD34+) ([9]; MGTA-145 0.03 mg/kg, 0.03 mg/kg): 31% | CD90+/kg Mean (CD34+CD90+CD45RA− cells) ([9]; MGTA-145 […]): 1.4 x10^6 | CD90+/kg Median (CD34+CD90+CD45RA− cells) ([9]; MGTA-145 […]): 1.2 x10^6 | CD90+ (% of CD34+) ([9]; MGTA-145 […], […]): 37% | initial plateau of neutrophil mobilization [10, 18]: 5-8 ×10^3 cells/μL | peak mobilization of neutrophils [10, 19]: 13-15 ×10^3 cells/μL | initial plateau of WBC mobilization [11, 18]: 6-10 ×10^3 cells/μL | peak mobilization of WBCs [11, 19]: 15-17 ×10^3 cells/μL | fold increase of CD34+ cells [12, 20]: 7 fold | peak concentration of CD34+ cells [12, 20]: ~10 cells/μL | time of peak CD34+ mobilization post administration ([12]; MGTA-145 monotherapy, across six doses 0.0075-0.3 mg/kg): about 30 minutes | fold increase of CD34+ cells [12, 21]: 2-3 fold | peak concentration of CD34+ cells ([12]; MGTA-145 monotherapy, the other doses (0.0075, 0.015, 0.075, 0.15, 0.3 mg/kg)): ~5 cells/μL | Percent ≥20/μL ([12]; MGTA-145 0.03 mg/kg): 0% | Peak CD34+ (#/μL) Median ([12]; MGTA-145 0.3 mg/kg): 3 #/μL | Percent ≥20/μL ([12]; MGTA-145 0.3 mg/kg): 0% | Peak CD34+ (#/μL) Median ([12]; MGTA-145 on Day 1, 0.03 mg/kg): 12 #/μL | fold increase of CD34+CD90+CD45RA− cells [13, 20]: ~8.3 fold | peak concentration of CD34+CD90+CD45RA− cells [13, 20]: ~3 cells/μL | time of peak CD34+CD90+CD45RA− mobilization post administration ([13]; MGTA-145 monotherapy, six doses): 30 min | fold increase of CD34+CD90+CD45RA− cells [13, 21]: 2-3.5 fold | peak concentration of CD34+CD90+CD45RA− cells [13, 21]: 1-1.6 cells/μL

B1: G-CSF: Filgrastim (G-CSF), most common clinical hematopoietic stem cell mobilization protocol, five days (protein, chains of the INN, looked up)
chain: MTPLGPASSLPQSFLLKCLEQVRKIQGDGAALQEKLCATYKLCHPEELVLLGHSLGIPWAPLSSCPSQALQLAGCLSQLHSGLFLYQGLLQALEGISPELGPTLDTLQLDVADFATTIWQQMEELGMAPALQPTQGAMPAFASAFQRRAGGVLVASHLQSFLEVSYRVLRHLAQP
fold increase in neutrophil activation markers [14]: ~2.7 fold | tolerability [15]: Majority with bone pain, | graft CD34+ Median (range) ([16]; Chen et al., 2019, 2 LP for plerixafor (N = 50+), 1 LP for G-CSF (N = 112+)): 4.2e+06 kg⁻¹ | graft CD3+ Median (range) [16, 22]: 2.5e+08 kg⁻¹ | graft CD4+ Median (range) [16, 22]: 1.5e+08 kg⁻¹ | graft CD8+ Median (range) [16, 22]: 7e+07 kg⁻¹ | graft CD19+ Median (range) [16, 22]: 5e+07 kg⁻¹ | graft CD56+ Median (range) [16, 22]: 1e+07 kg⁻¹ | graft CD3+ Median (range) [16, 23]: 1.3 (1.2-6.8) ×10^8/kg | graft CD4+ Median (range) [16, 23]: 1.1 (0.7-3.2) ×10^8/kg | graft CD8+ Median (range) [16, 23]: 0.4 (0.3-3.4) ×10^8/kg | graft CD56+ Median (range) [16, 23]: 0.2 (0.1-0.5) ×10^8/kg | graft CD34+ Median (range) ([16]; Devine et al, 2008, yield of 1 LP, plerixafor N = 24, G-CSF N = 8): 4.2 (2.5-18.7) ×10^6/kg | TNC/kg donor weight Median (range) ([16]; G-CSF, 40 healthy donors, Singhal et al, BMT 2000): 7.2 (3.2-14.0) ×10^8 cells | frequency of CD3+ T cells in graft, Median ([16]; G-CSF, 78 healthy donors, Chaidos et al, Blood 2012): 45.3 % of CD45+ | frequency of CD4+ T cells in graft, Median [16, 24]: 29.8 % of CD45+ | frequency of CD8+ T cells in graft, Median [16, 24]: 11.8 % of CD45+ | frequency of CD19+ B cells in graft, Median [16, 24]: 10.5 % of CD45+ | frequency of CD56+ NK cells in graft, Median [16, 24]: 3.2 % of CD45+ | frequency of Tregs in graft, Median [16, 24]: 3.5 % of CD4+ T cells | frequency of iNKT cells in graft, Median [16, 24]: 0.04 % of CD3+ | CD90+CD45RA− among CD34+ cells with a regimen that includes G-CSF [17]: 6%
